Measured values published in patent publication KR20200132110A (dated 2020).

Columns and labels:
[1] = target: CD71 (on cancer stem cells and cancer cell lines) (UniProt P02786 1-760, limits assumed); assay: cell-based or functional assay
[2] = target: T1, BSA (UniProt P02769 25-607); assay: ELISA, 100 nM coated protein
T1 construct: Negative control

[3] = target: T2, CTLA-4 (UniProt P16410 36-161, limits assumed); assay: ELISA, 100 nM coated protein
T2 construct: Negative control; The construct is not described
T2 sequence (looked up): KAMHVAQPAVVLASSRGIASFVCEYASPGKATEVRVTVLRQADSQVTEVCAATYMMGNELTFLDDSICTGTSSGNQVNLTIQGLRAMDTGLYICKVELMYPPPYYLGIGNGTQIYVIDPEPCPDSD

Chain of CD71 (on cancer stem cells and cancer cell lines) (P02786 whole entry): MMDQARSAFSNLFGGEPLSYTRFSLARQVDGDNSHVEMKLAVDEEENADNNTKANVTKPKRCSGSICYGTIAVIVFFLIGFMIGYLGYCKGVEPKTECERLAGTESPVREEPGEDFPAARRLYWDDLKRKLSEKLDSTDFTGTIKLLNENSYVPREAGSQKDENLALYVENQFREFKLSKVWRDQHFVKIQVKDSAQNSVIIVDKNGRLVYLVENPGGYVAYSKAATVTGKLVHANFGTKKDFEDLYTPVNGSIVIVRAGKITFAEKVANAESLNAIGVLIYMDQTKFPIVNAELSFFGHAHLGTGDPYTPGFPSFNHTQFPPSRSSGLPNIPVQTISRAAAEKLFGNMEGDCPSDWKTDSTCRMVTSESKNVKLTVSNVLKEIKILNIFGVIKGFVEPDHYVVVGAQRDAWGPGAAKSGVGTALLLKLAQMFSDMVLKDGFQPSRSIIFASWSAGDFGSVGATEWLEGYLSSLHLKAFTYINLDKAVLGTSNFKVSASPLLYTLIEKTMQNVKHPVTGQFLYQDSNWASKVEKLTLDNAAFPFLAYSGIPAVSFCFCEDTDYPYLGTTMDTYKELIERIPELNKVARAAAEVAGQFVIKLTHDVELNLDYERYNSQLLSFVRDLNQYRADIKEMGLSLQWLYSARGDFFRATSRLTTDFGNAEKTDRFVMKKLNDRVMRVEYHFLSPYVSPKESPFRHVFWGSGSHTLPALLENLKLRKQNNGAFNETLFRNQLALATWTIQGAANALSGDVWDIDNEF
T1 sequence (P02769 25-607 limits assumed): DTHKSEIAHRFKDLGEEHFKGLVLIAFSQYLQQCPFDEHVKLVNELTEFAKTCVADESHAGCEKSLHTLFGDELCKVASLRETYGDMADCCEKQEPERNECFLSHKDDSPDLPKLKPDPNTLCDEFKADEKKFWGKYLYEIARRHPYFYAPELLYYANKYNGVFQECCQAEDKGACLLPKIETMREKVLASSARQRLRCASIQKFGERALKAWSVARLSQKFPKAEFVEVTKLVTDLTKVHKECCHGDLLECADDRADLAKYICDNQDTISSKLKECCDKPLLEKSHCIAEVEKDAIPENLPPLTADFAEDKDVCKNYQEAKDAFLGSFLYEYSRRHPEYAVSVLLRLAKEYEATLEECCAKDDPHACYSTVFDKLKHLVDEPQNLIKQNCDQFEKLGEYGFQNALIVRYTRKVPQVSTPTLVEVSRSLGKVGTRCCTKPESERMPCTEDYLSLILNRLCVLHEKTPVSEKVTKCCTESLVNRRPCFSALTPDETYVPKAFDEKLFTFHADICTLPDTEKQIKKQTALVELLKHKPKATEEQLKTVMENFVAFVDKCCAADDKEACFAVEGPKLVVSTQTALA

EC50 세포성장 저해, parent암 세포주 (AlamarBlue) [1]: 0.0183 µM
EC50 세포성장 저해, 암 줄기세포주 (AlamarBlue) [1]: 0.0533 µM
binding result [2]: no binding (tested: 1μg/mL)
binding result [3]: no binding (tested: 1μg/mL)
B1: 1E12 항체 (antibody, V domains shown)
VH: QMQLVQSGAEVKKPGASVKVSCKASGYIFTDYYMHWVRQAPGQGLEWMGGISPIFGTANYAQNFQGRVTITADESTTTAYMELSNLRSEDTAVYYCAKDGAGPEYYYYGLDVWGQGTSVTVSS
VL: QSALTQPPSVSGSPGQSVTISCTGTSSDIGGYNYVSWYQHHPGKAPKLVISEVTKRPSGVPGRFSGSKSGNTASLTVSGLQAEDEADYYCSSYSDSDNLLFGGGTKLTVLG
notes: also called b) 단클론 항체
